Counter-ions that a name gives are not always drawn.
Experiments:
[1] = system: human platelet aggregation induced by ADP; assay: In vitro test for inhibition of human platelet aggregation induced by ADP (platelet rich plasma); type: cell-based; conditions: read-out: IC50, inhibition of human platelet aggregation induced by 5 μM ADP
Procedure: • 1. Sysmex blood cell counter model KX-21. • 2. […] Absorption is measured with the Labsystems iEMS program. • 3. Blood collection system 600 mL with needle, art P4203 (NPBI). • 4.
The optical density (OD620) is then measured at 620 nm. […] This is to verify the stability of the platelets (absence of spontaneous platelet aggregation). […] Between two measurements, the plate is shaking for 40 seconds at 1,000 rpm. Each test compound is investigated in at least 2 experiments using PRP from different volunteers.
The mean OD at each compound concentration (including vehicle) is calculated at t=0 min and t=10 min. The percentage inhibition at each concentration is calculated using the formula: […]

[2] = system: human platelet aggregation induced by TRAP; assay: In vitro test for inhibition of human platelet aggregation induced by TRAP (washed platelets); type: cell-based; conditions: read-out: IC50, inhibition of human platelet aggregation induced by 5 μM TRAP
Procedure: This aggregation can be determined by measuring the optical density of the WPL. The in vitro test described here is used to analyze the activity of a test compound to inhibit TRAP-induced aggregation of human platelets. […] Between two measurements, the plate is shaking for 40 seconds at 1,000 rpm.

[3] = Pharmacokinetics after s.c. administration in rat (plasma concentration by anti-Xa activity); type: in vivo, male Wistar rats; conditions: male, Wistar, sc, 500 nmol/kg
Procedure: The pharmacokinetic properties of compound 3 were studied in male Wistar rats of 300-400 gr. The rats were anaesthetized by inhalation of a mixture of O2/N2O/isoflurane, after which the right jugular vein was cannulated. The next day rats were treated s.c. with doses of 100 or 500 nmol/kg. After s.c. administration, blood was sampled at several time intervals. Then the blood was centrifuged after which the plasma was siphoned off and stored at −20° C. until use. The concentration of the tested compound was measured amidolytically with S2222 (Chromogenix, Chromogenics Ltd, Molndal, Sweden) by determination of the anti-Xa activity based on the method of Teien and Lie in the obtained plasma samples against a calibration curve which was made of the stock solution of the tested compound itself. (Teien A N, Lie M. Evaluation of an amidolytic heparin assay method increased sensitivity by adding purified antithrombin III. Thromb. Res. 1977, 10: 399-410). The concentration in the samples was expressed in nmol/mL and the kinetic parameters were calculated with the noncompartment model of WinNonlin.

| SMILES | IC50 [1] [nM] | IC50 [2] [nM] | Tmax ([3]; n = 3) [h] | AUC(0-inf) ([3]; n = 3, mean ± s.e.m.) [µM·h] | Cmax ([3]; n = 3, mean ± s.e.m.) [µM] | half-life ([3]; n = 3, mean ± s.e.m., read-out: T½ eli (converted)) [min] |
| --- | --- | --- | --- | --- | --- | --- |
| CCCCS(=O)(=O)N[C@@H](Cc1ccc(OCCCCC2CCNCC2)cc1)C(=O)O [tirofiban] | 30 to 60 | 30 to 60 |  |  |  |  |
| CO[C@H]1O[C@H](COS(=O)(=O)O)[C@@H](O[C@@H]2O[C@@H](C(=O)O)[C@@H](O[C@H]3O[C@H](COS(=O)(=O)O)[C@@H](O[C@@H]4O[C@H](C(=O)O)[C@@H](O[C@H]5O[C@H](COS(=O)(=O)O)[C@@H](OCCOCCOCCOCCNC(=O)COCCOCCOCCOCCNC(=O)c6cccc(S(=O)(=O)N[C@@H](Cc7ccc(OCCCCC8CCNCC8)cc7)C(=O)O)c6)[C@H](OC)[C@H]5OC)[C@H](OC)[C@H]4OC)[C@H](OS(=O)(=O)O)[C@H]3OS(=O)(=O)O)[C@H](OC)[C@H]2OC)[C@H](OS(=O)(=O)O)[C@H]1OS(=O)(=O)O [Compound 3, sodium salt] |  |  | 2.5 | 75.3 ± 3.2 | 5 ± 0.4 | 558 ± 12 |

Source: patent publication US20090111769A1, “Antithrombotic Compound” (priority 2005, published 2009)
